Experimental data published in US20200317768A1 (published 2020).
Numbering of substitutions follows the chain as printed.

T1: human FcγRIIaR extracellular domain with C-terminal His-tag (human, UniProt P12318 34-217)
T1 construct: also called human FcgRIIaR; FcγRIIa (type R)
T1 chain: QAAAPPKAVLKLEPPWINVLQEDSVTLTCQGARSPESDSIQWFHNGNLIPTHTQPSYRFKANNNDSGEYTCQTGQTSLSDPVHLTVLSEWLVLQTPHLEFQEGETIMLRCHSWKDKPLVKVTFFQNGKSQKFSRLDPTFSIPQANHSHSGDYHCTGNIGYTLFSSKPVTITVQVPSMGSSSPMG

B1: M103205H795-MY209/M103202L889-SK1 (antibody, human IgG1, kappa)
heavy: QVTLKESGPVLVKPTETLTLTCTVSGIDLSHDDISWVRQAPGKGLEWVGIISYAGSTYYASWAKGRLTISKDTSKNQVVLTMTNMDPVDTATYYCARGVPAYSHGGDLWGQGTLVTVSSASTKGPSVFPLAPSSKSTSGGTAALGCLVKDYFPEPVTVSWNSGALTSGVHTFPAVLQSSGLYSLSSVVTVPSSSLGTQTYICNVNHKPSNTKVDKKVEPKSCDKTHTCPPCPAPELLNGPSVFLFPPKPKDTLMISRTPEVTCVVVDVSDEDPEVKFNWYVDGVEVHNAKTKPREELYNSTYRVVSVLTVLHQDWLNGKEYKCKVSNTALPKPIEKTISKAKGQPREPQVYTLPPSREEMTKNQVSLTCLVKGFYPSDIAVEWESNGQPENNYKTTPPVLDSDGSFFLYSKLTVDKSRWQQGNVFSCSVMHEALHNHYTQKSLSLSP
light: DIVMTQSPATLSLSPGERATLSCTSSQSVYHANWLSWFQQKPGQPPKLLIYWASTLAYGVPSRFSGSGSGTDFTLTISSLQPEDAATYYCAGGYGGGRYAFGQGTKVEIKRTVAAPSVFIFPPSDEQLKSGTASVVCLLNNFYPREAKVQWKVDNALQSGNSQESVTEQDSKDSTYSLSSTLTLSKADYEKHKVYACEVTHQGLSSPVTKSFNRGEC
notes: Substitutions introduced into M103205H795-SG1, expressed with M103202L889-SK1 as light chain; EU numbering
B2: M103205H795-MY527/M103202L889-SK1 (antibody, human IgG1, kappa)
heavy: B1 heavy with A233T, N238T, T328K
light: B1 light
notes: as for B1
B3: M103205H795-MY531/M103202L889-SK1 (antibody, human IgG1, kappa)
heavy: B1 heavy with L236W, N238T, L297Q
light: B1 light
notes: as for B1
B4: M103205H795-MY342/M103202L889-SK1 (antibody, human IgG1, kappa)
heavy: B1 heavy with N238L, T328K, P398M
light: B1 light
notes: as for B1
B5: M103205H795-MY525/M103202L889-SK1 (antibody, human IgG1, kappa)
heavy: B1 heavy with A233T, N238T, S241V, L297Q, T328K
light: B1 light
notes: as for B1
B6: M103205H795-MY392/M103202L889-SK1 (antibody, human IgG1, kappa)
heavy: B1 heavy with N238T, L297Q, S300L, T328K
light: B1 light
notes: as for B1
B7: M103205H795-MY532/M103202L889-SK1 (antibody, human IgG1, kappa)
heavy: B1 heavy with L236W, N238T, S241V, L297Q, T328K
light: B1 light
notes: as for B1
B8: M103205H795-MY341/M103202L889-SK1 (antibody, human IgG1, kappa)
heavy: B1 heavy with N238L, P398K
light: B1 light
notes: as for B1
B9: M103205H795-MY514/M103202L889-SK1 (antibody, human IgG1, kappa)
heavy: B1 heavy with N238T, S241V, L297Q, S300L, T328K
light: B1 light
notes: as for B1
B10: M103205H795-MY526/M103202L889-SK1 (antibody, human IgG1, kappa)
heavy: B1 heavy with A233T, N238T, S241V, T328K
light: B1 light
notes: as for B1
B11: M103205H795-MY388/M103202L889-SK1 (antibody, human IgG1, kappa)
heavy: B1 heavy with N238T, S241I, L297Q, T328K
light: B1 light
notes: as for B1
B12: M103205H795-MY529/M103202L889-SK1 (antibody, human IgG1, kappa)
heavy: B1 heavy with L236W, N238T, T328K
light: B1 light
notes: as for B1
B13: M103205H795-MY521/M103202L889-SK1 (antibody, human IgG1, kappa)
heavy: B1 heavy with P234D, N238T, T328K
light: B1 light
notes: as for B1
B14: M103205H795-MY515/M103202L889-SK1 (antibody, human IgG1, kappa)
heavy: B1 heavy with N238T, S300L, T328K
light: B1 light
notes: as for B1
B15: M103205H795-MY386/M103202L889-SK1 (antibody, human IgG1, kappa)
heavy: B1 heavy with N238L
light: B1 light
notes: as for B1
B16: M103205H795-MY528/M103202L889-SK1 (antibody, human IgG1, kappa)
heavy: B1 heavy with L236W, N238T, L297Q, T328K
light: B1 light
notes: as for B1
B17: M103205H795-MY530/M103202L889-SK1 (antibody, human IgG1, kappa)
heavy: B1 heavy with N238T, L297Q
light: B1 light
notes: as for B1
B18: M103205H795-MY380/M103202L889-SK1 (antibody, human IgG1, kappa)
heavy: B1 heavy with D270E, L297Q, T328K, P398K
light: B1 light
notes: as for B1
B19: M103205H795-MY339/M103202L889-SK1 (antibody, human IgG1, kappa)
heavy: B1 heavy with N238L, L297Q, P398K
light: B1 light
notes: as for B1
B20: M103205H795-MY516/M103202L889-SK1 (antibody, human IgG1, kappa)
heavy: B1 heavy with N238T, S241V, S300L, T328K
light: B1 light
notes: as for B1
B21: M103205H795-MY400/M103202L889-SK1 (antibody, human IgG1, kappa)
heavy: B1 heavy with N238T, L297Q, T328K, P333E
light: B1 light
notes: as for B1
B22: M103205H795-MY283/M103202L889-SK1 (antibody, human IgG1, kappa)
heavy: B1 heavy with N238T, T328K
light: B1 light
notes: as for B1
B23: M103205H795-MY340/M103202L889-SK1 (antibody, human IgG1, kappa)
heavy: B1 heavy with N238L, T328K, P398K
light: B1 light
notes: as for B1
B24: M103205H795-MY387/M103202L889-SK1 (antibody, human IgG1, kappa)
heavy: B1 heavy with N238T, S241V, L297Q, T328K
light: B1 light
notes: as for B1
B25: M103205H795-MY524/M103202L889-SK1 (antibody, human IgG1, kappa)
heavy: B1 heavy with A233G, N238T, T328K
light: B1 light
notes: as for B1
B26: M103205H795-MY523/M103202L889-SK1 (antibody, human IgG1, kappa)
heavy: B1 heavy with A233G, N238T, S241V, T328K
light: B1 light
notes: as for B1
B27: M103205H795-MY389/M103202L889-SK1 (antibody, human IgG1, kappa)
heavy: B1 heavy with N238T, S241L, L297Q, T328K
light: B1 light
notes: as for B1
B28: M103205H795-MY522/M103202L889-SK1 (antibody, human IgG1, kappa)
heavy: B1 heavy with A233G, N238T, S241V, L297Q, T328K
light: B1 light
notes: as for B1
B29: M103205H795-MY520/M103202L889-SK1 (antibody, human IgG1, kappa)
heavy: B1 heavy with P234D, N238T, S241V, T328K
light: B1 light
notes: as for B1

Molecular target: T1, human FcγRIIaR extracellular domain …
Assay: SPR (BIACORE); KD of SG1 / KD of variant;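 also: relative to parent M103205H795-SG1 carrying the SG1 human heavy chain constant region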

Binder	KD fold (SG1 = 1) [fold]
B1	1.3
B2	3.8
B3	2.7
B4	1.1
B5	6.5
B6	2.7
B7	3.8
B8	2.6
B9	6.5
B10	5.2
B11	4.8
B12	2.1
B13	3.3
B14	4.2
B15	0.6
B16	2
B17	4.1
B18	1.3
B19	1.7
B20	12.9
B21	1.5
B22	1.1
B23	1.3
B24	3.5
B25	3.9
B26	3.7
B27	5.8
B28	6.5
B29	3.3
